Consider eight molecules from patent publication US20220187308A1 (published 2022).

In test [1] the target is T1, soluble human IL-6 receptor (human, UniProt P08887 20-357).
T1 construct: range 1-357; The stated range begins at position 1, so it includes the signal peptide; no cleavage site is stated; also called hsIL-6R
T1 sequence (looked up): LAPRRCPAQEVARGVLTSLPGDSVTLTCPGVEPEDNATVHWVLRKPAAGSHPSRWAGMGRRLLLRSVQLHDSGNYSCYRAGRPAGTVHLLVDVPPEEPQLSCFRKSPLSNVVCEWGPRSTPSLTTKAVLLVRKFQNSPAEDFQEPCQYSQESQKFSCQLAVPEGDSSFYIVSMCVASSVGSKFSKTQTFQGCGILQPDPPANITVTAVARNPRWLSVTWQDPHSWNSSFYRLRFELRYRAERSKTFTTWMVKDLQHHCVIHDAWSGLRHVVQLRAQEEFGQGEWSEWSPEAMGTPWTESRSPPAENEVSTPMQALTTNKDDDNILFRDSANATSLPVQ
The experiment in a line: SPR (Biacore T100); ratio of the KD values at 3 µM and 2 mM CaCl2. The protocol: The antigen-antibody reaction was kinetically analyzed in solutions of 2 mM and 3 μM calcium ion concentrations as high-calcium ion concentration and low-calcium ion concentration conditions, respectively. Each antibody of interest was captured onto Sensor chip CM4 (GE Healthcare Bio-Sciences Corp.) with protein A (Invitrogen Corp.) immobilized thereon in an appropriate amount by the amine coupling method. Two types of buffer solutions were used as running buffers: 10 mM ACES, 150 mM NaCl, 0.05% (w/v) Tween 20, and 2 mM CaCl₂ (pH 7.4); and 10 mM ACES, 150 mM NaCl, 0.05% (w/v) Tween 20, and 3 […] CaCl₂ (pH 7.4). The human IL-6 receptors were also diluted with each of these buffers. Assay was all carried out at 37° C.

Another test has as its target T2, GC-mIgA (mouse).
T2 construct: also called recombinant mouse IgA GC-mIgA; mouse IgA
The experiment in a line: SPR (Biacore A100), antibody from culture supernatant captured via protein A/G on CM5, GC-mIgA as analyte, 25 C, 1.2 mM CaCl2, pH 7.4 against pH 5.8. The protocol:
The culture supernatant obtained by the above method was used to analyze GC-mIgA-binding ability using Biacore A100. Antibodies in the culture supernatant were captured onto Sensor chip CM5 (GE Healthcare Bio-Sciences Corp.) with protein A/G (Pierce Biotechnology Inc.) immobilized thereon in an appropriate amount by the amine coupling method. Two types of buffer solutions were used as running buffers: 20 mM ACES, 150 mM NaCl, 0.05% (w/v) Tween 20, and 1.2 mM CaCl₂) (pH 7.4); and 20 mM ACES, 150 mM NaCl, 0.05% (w/v) Tween 20, and 1.2 mM CaCl₂) (pH 5.8). The interaction of antigen-antibody reaction was analyzed under neutral pH and acidic pH conditions. GC-mIgA was also diluted with each of these buffers and injected at a flow rate of 10 μL/min for 60 seconds to interact the antigen with the antibodies captured on the sensor chip. Then, 10 mM glycine-HCl (pH 1.5) was injected thereto at a flow rate of 30 μL/min for 30 seconds to regenerate the sensor chip. Assay was all carried out at 25° C.
Background: Surface plasmon resonance follows binding to a sensor surface in real time, without labels.

The next test concerns the target T3, human HMGB1 (human, UniProt P09429 2-215).
T3 construct: Expressed in FreeStyle 293 cells and purified; analyte in the Biacore assay of step (26-5); also called hHMGB1; recombinant human HMGB1
T3 sequence: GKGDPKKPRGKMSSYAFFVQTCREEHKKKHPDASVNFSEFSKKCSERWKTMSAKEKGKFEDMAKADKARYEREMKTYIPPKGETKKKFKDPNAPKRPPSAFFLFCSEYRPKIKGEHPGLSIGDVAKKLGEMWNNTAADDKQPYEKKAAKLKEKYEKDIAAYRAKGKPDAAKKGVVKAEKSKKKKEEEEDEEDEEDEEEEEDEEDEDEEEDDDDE
In words: SPR (Biacore T100), antibody captured via protein A/G on CM4, hHMGB1 as analyte, 25 C, 1.2 mM CaCl2, pH 7.4 against pH 5.8. The protocol: In order to judge the pH dependence of hHMGB1-binding activity of the antibodies HM_3_2_R_017 (heavy chain: SEQ ID NO: 131 and light chain: SEQ ID NO: 132), HM_3_2_R_054 (heavy chain: SEQ ID NO: 133 and light chain: SEQ ID NO: 134), and HM_4_1_R_001 (heavy chain: SEQ ID NO: 135 and light chain: SEQ ID NO: 136) obtained in the step (26-4), these antibodies were analyzed for their interaction with hHMGB1 using Biacore T100 (GE Healthcare Bio-Sciences Corp.). The interaction of antigen-antibody reaction was analyzed in solutions of pH 7.4 and pH 5.8 as neutral pH and acidic pH conditions, respectively. Approximately of 200 RU of each antibody of interest was captured onto Sensor chip CM4 (GE Healthcare Bio-Sciences Corp.) with protein A/G (Pierce Biotechnology Inc.) immobilized thereon in an appropriate amount by the amine coupling method. Two types of buffer solutions were used as running buffers: 20 mM ACES, 150 mM NaCl, 0.05% (w/v) Tween 20, and 1.2 mM CaCl₂) (pH 7.4); and 20 mM ACES, 150 mM NaCl, 0.05% (w/v) Tween 20, and 1.2 mM CaCl₂) (pH 5.8). hHMGB1 was also diluted with each of these buffers. Assay was all carried out at 25° C.
In the analysis on the interaction of antigen-antibody reaction using the HM_3_2_R_017 antibody, the HM_3_2_R_054 antibody, and the HM_4_1_R_001 antibody, the diluted hHMGB1 solution or a blank running buffer was injected at a flow rate of 10 μL/min for 60 seconds to […] onto the sensor chip. The HM_3_2_R_017 antibody, the HM_3_2_R_054 antibody, and the HM_4_1_R_001 antibody were interacted with hHMGB1. Then, 10 mM glycine-HCl (pH 1.5) was injected thereto at a flow rate of 30 μL/min for 30 seconds to regenerate the sensor chip.

Test [2] addresses T4, biotinylated human HMGB1-Avi (human, UniProt P09429 2-215, biotin added at the C-terminal Avitag sequence by biotin ligase (BirA)).
T4 construct: also called biotin-labeled hHMGB1; hHMGB1-Avitag
T4 sequence: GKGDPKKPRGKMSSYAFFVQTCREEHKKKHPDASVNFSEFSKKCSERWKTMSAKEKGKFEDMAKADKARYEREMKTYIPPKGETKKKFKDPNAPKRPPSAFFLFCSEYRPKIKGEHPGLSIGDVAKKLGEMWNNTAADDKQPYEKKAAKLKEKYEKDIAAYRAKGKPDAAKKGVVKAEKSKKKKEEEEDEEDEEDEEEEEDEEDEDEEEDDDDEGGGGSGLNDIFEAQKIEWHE
In words: phage ELISA (Fab displayed on phage) on biotin-labeled hHMGB1 on a StreptaWell plate, pH 7.6 against pH 5.5. How it is done:
A phage-containing culture supernatant was collected by phage culture according to a conventional method (Methods Mol. Biol. (2002) 178, 133-145) from each single colony of the E. coli obtained after the third and fourth rounds of panning carried out in the step (26-2). After addition of BSA and CaCl₂) (final concentration: 4% BSA and 1.2 mM calcium ion), the phage-containing culture supernatant was subjected to ELISA by the following procedures: StreptaWell 96 microtiter plate (F. Hoffmann-La Roche Ltd.) was coated for 4 hours or longer with 100 μL of PBS containing biotin-labeled hHMGB1. Each well of the plate was washed with PBST to remove unbound antigens. Then, the well was blocked with 250 μL of 4% BSA-TBS (50 mM Tris, 300 mM NaCl, 2.5 mM CaCl₂), and 4% BSA) for 1 hour or longer. […] Each well was washed with 1.2 mM CaCl₂)/TBST (pH 7.6), and 1.2 mM CaCl₂)/TBS (pH 7.6) or 1.2 mM CaCl₂)/150 mM NaCl/50 mM MES (pH 5.5) was added thereto. The plate was left standing at 37° C. for 30 minutes for incubation. After washing with 1.2 mM CaCl₂)/TBST (pH 7.6), HRP-conjugated anti-M13 antibodies (Amersham Pharmacia Biotech Inc.) diluted with 4% BSA-TBS were added to each well. The plate was incubated for 1 hour. After washing with 1.2 mM CaCl₂)/TBST (pH 7.6), TMB single solution (Invitrogen Corp.) was added to the well. The chromogenic reaction of the solution in each well was terminated by the addition of sulfuric acid. Then, the developed color was assayed on the basis of absorbance at 450 nm.

T2 sequence (light, as listed by the source): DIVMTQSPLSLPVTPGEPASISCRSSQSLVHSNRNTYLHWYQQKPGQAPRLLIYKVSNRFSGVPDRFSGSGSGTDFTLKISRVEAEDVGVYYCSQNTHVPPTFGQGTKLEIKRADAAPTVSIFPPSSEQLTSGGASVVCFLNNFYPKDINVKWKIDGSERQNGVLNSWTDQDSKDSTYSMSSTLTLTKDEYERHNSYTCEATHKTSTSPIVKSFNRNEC

B1: H54/L28-IgG1 (antibody, V domains shown)
VH: QVQLQESGPGLVKPSETLSLTCAVSGYSISDDQAWSWVRQPPGEGLEWIGYISYSGITNYNPSLKGRVTISRDTSKNQFSLKLSSVTAADTAAYYCARSLARTTAMDYWGEGTLVTVSS
VL: DIQMTQSPSSLSASVGDSVTITCQASQDISSYLNWYQQKPGKAPELLIYYGSELHSGVPSRFSGSGSGTDFTFTISSLEAEDAATYYCQQGNSLPYTFGQGTKVEIER
notes: Control anti-human IL-6 receptor antibody described in WO2009125825; also called H54/L28-IgG1 antibody
For B1, the “Ca dependence (KD at 3 µM CaCl2 against KD at 2 mM CaCl2)” value (shortened to “Ca dependence”) in test [1] was approximately 1 times.

B2: FH4-IgG1 (antibody, V domains shown)
VH: QVQLVQSGAEVKKPGSSVKVSCKASGGTFSSYAISWVRQAPGQGLEWMGGIIPIFGTANYAQKFQGRVTITADESTSTAYMELSSLRSEDTAVYYCARERDYYDSSGYYDAFDIWGQGTMVTVSS
VL: ETTVTQSPSFLSASVGDRVTITCITTTDIDDDMNWFQQEPGKAPKLLISEGNILRPGVPSRFSSSGYGTDFTLTISKLQPEDFATYYCLQSDNLPFTFGQGTKLEIKR
notes: also called FH4-IgG1 antibody
For B2, the “Ca dependence” value in test [1] was not below 60 times.

B3: 6RL #9-IgG1 (antibody, V domains shown)
VH: QVQLVQSGAEVKKPGASVKVSCKASGYTFTSYYMHWVRQAPGQGLEWMGIINPSGGSTSYAQKFQGRVTMTRDTSTSTVYMELSSLRSEDTAVYYCARDDPGGGEYYFDYWGQGTLVTVSS
VL: QSVLTQPPSVSGAPGQRVTISCTGSRSNMGAGYDVHWYQLLPGAAPKLLISHNTHRPSGVPDRFSGSKSGASASLAITGLQAEDEADYYCQSHDSSLSAVVFGGGTKLTVLS
notes: also called 6RL #9 antibody; 6RL #9-IgG1 antibody
With B3, in test [1], the “Ca dependence” value was not below 120 times.

B4: mIAP1B3-3_#024 (antibody, human IgG1, kappa, V domains shown)
VH: QVQLQESGPGLVKPSQTLSLTCAVSGGSISKTYSYWAWIRQHPVKGLEWIGYISYGGGTHYNPSLKSRVTISSDTSKNHFSLNLNSVTAADTAVYYCARSGFRVFGAFDIWGQGTMVTVSS
VL: DIQMTQSPSSLSASVGDRVTITCRASQSIRSHLNWYQQKPGKAPKLLIYDASHLQSGVPSRFSGSGSGTDFTLTISSLQPEDFATYYCQQHYNSPLTFGQGTKVEIKR
notes: From His library 1; tested from the culture supernatant of 293-F cells
For B4, in the test with GC-mIgA, the binding result is on record as “binds”.

B5: mIAP1B3-3_#230 (antibody, human IgG1, kappa, V domains shown)
VH: QVQLQQSGPGLVKPSESLSLTCNVSGYYISSGYYWGWIRQPPGKGLEWIGSIYPSGTSHYNPSLKSRVTISLDTSKNQFSLKLSSLSAADTAVYYCARAGVIAGGPRTYAFDIWGQGTTVTVSS
VL: DIQMTQSPSSLSASVGDRVTITCRASQSIRSHLAWYQQKPGKAPKLLIYKASHLQSGVPSRFSGSGSGTDFTLTISSLQPEDFATYYCQQSHHSPLTFGQGTKVEIKR
notes: as for B4
For the molecule B5, the binding result with GC-mIgA is “binds”.

B6: mIAP1B3-3_#130 (antibody, human IgG1, kappa, V domains shown)
VH: QVQLQESGPGLVKPSETLSLTCTVSGGSISSSSYYWGWIRQPPGKGLEWIGSIYYSGSTYYNPSLKSRVTISVDTSKNQFSLKLSSVTAADTAVYYCARHGPSGSYYAFDIWGQGTMVTVSS
VL: DIQMTQSPSSLSASVGDRVTITCRASQSISSHLNWYQQKPGKAPKLLIYKASHLQSGVPSRFSGSGSGTDFTLTISSLQPEDFATYYCQQRHHSPLTFGQGTKVEIKR
notes: as for B4
In the case of B6, the binding result with GC-mIgA is listed as “binds”.

B7: HM_3_2_R_054 (antibody, human IgG1, kappa, V domains shown)
VH: QVQLVQSGAEVKKPGSSVKVSCKASGGTFSSYAISWVRQAPGQGLEWMGGIIPIFGTANYAQKFQGRVTITADESTSTAYMELSSLRSEDTAVYYCARDNRTLTYYDFWSGYSFWDAFDIWGQGTMVTVSS
VL: DIQMTQSPSSLSASVGDRVTITCRASQSIHSHLAWYQQKPGKAPKLLIYGASHLQSGVPSRFSGSGSGTDFTLTISSLQPEDFATYYCQQRHSYPLTFGQGTKVEIKR
notes: From His library 1; also called HM_3_2_R_054 antibody
Regarding B7, the binding result (in the test with human HMGB1; in test [2]) was “binds” in each case.

B8: HM_3_2_R_017 (antibody, human IgG1, kappa, V domains shown)
VH: QVQLQESGPGLVKPSETLSLTCSVSGGPISSSGYYWGWIRQPPGKGLEWIGTVYFNGDTYYNPSLKSRVTISVDTSKNQFSLKLNSVTAADTAVYYCAREEGYYYYYMDVWGKGTTVTVSS
VL: DIQMTQSPSSLSASVGDRVTITCRASQSINSHLNWYQQKPGKAPKLLIYGASHLQSGVPSRFSGSGSGTDFTLTISSLQPEDFATYYCQQSHSYPLTFGQGTKVEIKR
notes: From His library 1; also called HM_3_2_R_017 antibody
As for B8, the binding result (with human HMGB1; in test [2]) was “binds” throughout.
